Test results taken from publication doi:10.1101/2022.02.23.481653 (bioRxiv, 2022).
Where a chain is given by its changes, count along the chain named. Names and notes keep the numbering of the source.

B1: SEPT2-msfGFP (wild type) (natural protein)
chain: MSKQQPTQFINPETPGYVGFANLPNQVHRKSVKKGFEFTLMVVGESGLGKSTLINSLFLTDLYPERVIPGAAEKIERTVQIEASTVEIEERGVKLRLTVVDTPGYGDAINCRDCFKTIISYIDEQFERYLHDESGLNRRHIIDNRVHCCFYFISPFGHGLKPLDVAFMKAIHNKVNIVPVIAKADTLTLKERERLKKRILDEIEEHNIKIYHLPDAESDEDEDFKEQTRLLKASIPFSVVGSNQLIEAKGKKVRGRLYPWGVVEVENPEHNDFLKLRTMLITHMQDLQEVTQDLHYENFRSERLKRGGRKVENEDMNKDQILLEKEAELRRMQEMIARMQAQMQMQMQGGDGDGGALGHHV
B2: SEPT2NCmut-msfGFP (SEPT2 F20D, V27D) (natural protein)
chain: B1 chain with F20D, V27D

Molecular target: the molecule itself
Assay: native gel or EMSA

| Protein | stoichiometry N |
| --- | --- |
| B1 | 2 |
| B2 | 2 |
